Measured values published in patent US20160244802A1 (UNIVERSITY OF NORTH CAROLINA AT CHAPEL HILL, published 2016).

Biological target: the molecule itself
Assay: gel filtration (Sephacryl S300) native size against about 150 kDa on SDS-PAGE; inference
Procedure: The bound proteins were eluted with a 12-cv linear gradient from BD50 to BD450. The flow-through containing the HDM activity was adjusted to 700 mM ammonium sulfate before it was loaded onto a 22 mL Phenyl Sepharose® column (Pharmacia). The bound proteins were eluted with a cv linear gradient from BD700 to BD0. The active fractions, which eluted from 10-BD150-BD50, were combined and concentrated to 5 mL before they were loaded onto a 120 mL Sephacyl® S300 gel filtration column (Pharmacia). The active fractions, which eluted around 300 kDa, were pooled and loaded onto a 1 mL MonoS® column (Pharmacia) equilibrated with BC50. Bound proteins were eluted with a 20-cv linear gradient from BC50 to BC400. The active fractions eluted from BC100 to BC150. […]
To identify the protein(s) responsible for this demethylase activity, we monitored the enzymatic activity through five chromatography columns (Scheme 5). After purification of the 0.3 M P11 fraction through DEAE5PW and Phenyl Sepharose® columns, we determined that the native mass of the enzymatic activity was about 300 kDa as assessed by a Sephacyl® S300 column (FIG. 9A). […] To verify that JMJD1A was responsible for the detected demethylase activity, an antibody against this protein was generated and used to immunoprecipitate JMJD1A from the MonoS® column fractions 21-29. […]

B1: native JHDM2A (JMJD1A) purified from HeLa cells (enzyme)
chain: MVLTLGESWPVLVGRRFLSLSAADGSDGSHDSWDVERVAEWPWLSGTIRAVSHTDVTKKDLKVCVEFDGESWRKRRWIEVYSLLRRAFLVEHNLVLAERKSPEISERIVQWPAITYKPLLDKAGLGSITSVRFLGDQQRVFLSKDLLKPIQDVNSLRLSLTDNQIVSKEFQALIVKHLDESHLLKGDKNLVGSEVKIYSLDPSTQWFSATVINGNPASKTLQVNCEEIPALKIVDPSLIHVEVVHDNLVTCGNSARIGAVKRKSSENNGTLVSKQAKSCSEASPSMCPVQSVPTTVFKEILLGCTAATPPSKDPRQQSTPQAANSPPNLGAKIPQGCHKQSLPEEISSCLNTKSEALRTKPDVCKAGLLSKSSQIGTGDLKILTEPKGSCTQPKTNTDQENRLESVPQALTGLPKECLPTKASSKAELEIANPPELQKHLEHAPSPSDVSNAPEVKAGVNSDSPNNCSGKKVEPSALACRSQNLKESSVKVDNESCCSRSNNKIQNAPSRKSVLTDPAKLKKLQQSGEAFVQDDSCVNIVAQLPKCRECRLDSLRKDKEQQKDSPVFCRFFHFRRLQFNKHGVLRVEGFLTPNKYDNEAIGLWLPLTKNVVGIDLDTAKYILANIGDHFCQMVISEKEAMSTIEPHRQVAWKRAVKGVREMCDVCDTTIFNLHWVCPRCGFGVCVDCYRMKRKNCQQGAAYKTFSWLKCVKSQIHEPENLMPTQIIPGKALYDVGDIVHSVRAKWGIKANCPCSNRQFKLFSKPASKEDLKQTSLAGEKPTLGAVLQQNPSVLEPAAVGGEAASKPAGSMKPACPASTSPLNWLADLTSGNVNKENKEKQPTMPILKNEIKCLPPLPPLSKSSTVLHTFNSTILTPVSNNNSGFLRNLLNSSTGKTENGLKNTPKILDDIFASLVQNKTTSDLSKRPQGLTIKPSILGFDTPHYWLCDNRLLCLQDPNNKSNWNVFRECWKQGQPVMVSGVHHKLNSELWKPESFRKEFGEQEVDLVNCRTNEIITGATVGDFWDGFEDVPNRLKNEKEPMVLKLKDWPPGEDFRDMMPSRFDDLMANIPLPEYTRRDGKLNLASRLPNYFVRPDLGPKMYNAYGLITPEDRKYGTTNLHLDVSDAANVMVYVGIPKGQCEQEEEVLKTIQDGDSDELTIKRFIEGKEKPGALWHIYAAKDTEKIREFLKKVSEEQGQENPADHDPIHDQSWYLDRSLRKRLHQEYGVQGWAIVQFLGDVVFIPAGAPHQVHNLYSCIKVAEDFVSPEHVKHCFWLTQEFRYLSQTHTNHEDKLQVKNVIYHAVKDAVAMLKASESSFGKP
notes: Endogenous protein in MonoS column fractions from HeLa nuclear extract; also called TSGA
**Q.** Does B1 bind?
**A.** Result: binds
